Legend:
[1] = NSL3 ubiquitination: Flag IP, anti-HA-ubiquitin WB, MG132; conditions: glycan gained; control: NSL3 alone / untreated
[2] = WB of histone marks in 293T; conditions: glycan lost; control: NSL3-3wt overexpression
[3] = Flag-OGT1 IP, WB for NSL3, MOF, MCRS1, PHF20, NSL1, NSL2; conditions: glycan lost; control: NSL3-3wt overexpression
[4] = Flag IP, anti-HA-ubiquitin WB, increasing OGT1, NSL3-3 truncation; conditions: glycan lost; control: NSL3-3wt
A549 colony formation = conditions: glycan lost; control: NSL3-3wt overexpression
[5] = Flag IP, WB, increasing OGA; conditions: glycan lost; control: full-length NSL3wt
[6] = Flag IP, anti-HA-ubiquitin WB, increasing OGT1, UBE2S, MG132; conditions: glycan lost; control: full-length NSL3wt

NSL3 (nonspecific lethal protein 3): OGT1 co-transfection
degradation_or_half_life [1]: increases

NSL3 (nonspecific lethal protein 3): Flag-NSL3-3 T755A
other: reduction of global H4 acetylation/H3K4me2 by NSL3-3 overexpression [2]: abolishes

NSL3 (nonspecific lethal protein 3): NSL3-3 T755A
other: loss of NSL complex subunits from Flag-OGT1 IP caused by NSL3-3 [3]: abolishes
degradation_or_half_life [4]: changes

NSL3 (nonspecific lethal protein 3): NSL3-3mt (T755A)
other: colony suppression by NSL3-3 overexpression (A549 colony formation): abolishes

NSL3 (nonspecific lethal protein 3): thiamet-G (TMG)
degradation_or_half_life [1]: decreases

NSL3 (nonspecific lethal protein 3): NSL3 T755A
other: OGA-induced increase of NSL3 ubiquitination and UBE2S binding [5]: decreases
other: OGT1-dependent decrease of NSL3 ubiquitination [6]: abolishes
